*: point of attachment. Biotin = O=C1N[C@H]2[C@H](CS[C@H]2CCCCC(=O)*)N1
Biological target: T1, wild-type human GID4 fragment (residues 116-300), purified with N-terminal His-tag (human, UniProt Q8IVV7 116-300)
T1 construct: Expressed in E. coli BL21(DE3), nickel-column purified; also called wild-type GID4; native GID4; not shown: N-terminal six-histidine tag and TEV protease recognition site from the pET21(+) construct
T1 sequence: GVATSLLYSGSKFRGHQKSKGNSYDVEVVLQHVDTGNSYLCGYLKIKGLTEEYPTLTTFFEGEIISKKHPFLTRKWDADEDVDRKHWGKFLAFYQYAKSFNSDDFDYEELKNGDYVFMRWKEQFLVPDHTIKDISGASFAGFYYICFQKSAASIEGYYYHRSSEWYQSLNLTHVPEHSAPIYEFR
Test: BLI, biotinylated peptide on streptavidin biosensor, 10 µmol/L protein
Description: High-throughput kinetic measurements were taken using Octet Red96e system with Octet Streptavidin (SA) Biosensors in 96-well format. The highest concentration of protein was prepared by mixing 25% of the total volume with 0.4% BSA in dialysis buffer (1×PBS) and completing subsequent dilutions with 0.1% BSA in dialysis buffer. The SA biosensors were hydrated for 10 min in the dialysis buffer with 0.1% BSA then loaded with NH₂-XXXVKSK(biotin)-COOH (where X are residues specified in the experiment and figures) by moving the sensors into wells with 10 μmol/L of the biotinylated peptide and incubating for 2 min. Unbound peptide was removed by incubating in the dialysis buffer with 0.1% BSA for 2 min in the next wells. The association of GID4 wild-type and variants were then measured by incubating the biosensors in wells with the proteins for 10 min and then dissociation measured by moving the sensors into new wells with dialysis buffer with 0.1% BSA for another 10 min. All wells contained 200 μL of specified solution. The measurements were analyzed with instrument software Data Analysis HT (Version 12).
The association and dissociation of the GID4 wild-type and the six variants to the PGLVKSK(biotin) peptide were evaluated using BLI. BLI is an optical technique that can measure interaction between protein in solution ad peptide immobilized on the biosensor tip. […] The S283F variant has an apparent faster dissociation rate compared to the other singe mutation variants. The apparent faster dissociation rate due to S283F mutation is also present in A252V-S283F mutant, when compared to the A252V-S253T mutant. […] The increase in the BLI response and shift in dissociation rate can be beneficial as an Nt-Pro recognizing protein; differences in off-rate can be used as method to distinguish different Nt-amino acids.

binding result: binds
B1: NH2-PGLVKSK(biotin)-COOH peptide (peptide)
peptide: H-PGLVKSK(Biotin)-OH
SMILES: CC(C)C[C@H](NC(=O)CNC(=O)[C@@H]1CCCN1)C(=O)N[C@H](C(=O)N[C@@H](CCCCN)C(=O)N[C@@H](CO)C(=O)N[C@@H](CCCCNC(=O)CCCC[C@@H]1SC[C@@H]2NC(=O)N[C@@H]21)C(=O)O)C(C)C
notes: Immobilised on streptavidin biosensors in BLI; in solution in the yeast display sorts; also called Nt-Pro peptide; target peptide
